This note sets out measurements from EP1149909A1.

The assay has as its target ClpA (E. coli) (UniProt P0ABH9). Nature of the assay: cell-based or functional assay.
UniProt P0ABH9, sequence (P0ABH9 whole entry): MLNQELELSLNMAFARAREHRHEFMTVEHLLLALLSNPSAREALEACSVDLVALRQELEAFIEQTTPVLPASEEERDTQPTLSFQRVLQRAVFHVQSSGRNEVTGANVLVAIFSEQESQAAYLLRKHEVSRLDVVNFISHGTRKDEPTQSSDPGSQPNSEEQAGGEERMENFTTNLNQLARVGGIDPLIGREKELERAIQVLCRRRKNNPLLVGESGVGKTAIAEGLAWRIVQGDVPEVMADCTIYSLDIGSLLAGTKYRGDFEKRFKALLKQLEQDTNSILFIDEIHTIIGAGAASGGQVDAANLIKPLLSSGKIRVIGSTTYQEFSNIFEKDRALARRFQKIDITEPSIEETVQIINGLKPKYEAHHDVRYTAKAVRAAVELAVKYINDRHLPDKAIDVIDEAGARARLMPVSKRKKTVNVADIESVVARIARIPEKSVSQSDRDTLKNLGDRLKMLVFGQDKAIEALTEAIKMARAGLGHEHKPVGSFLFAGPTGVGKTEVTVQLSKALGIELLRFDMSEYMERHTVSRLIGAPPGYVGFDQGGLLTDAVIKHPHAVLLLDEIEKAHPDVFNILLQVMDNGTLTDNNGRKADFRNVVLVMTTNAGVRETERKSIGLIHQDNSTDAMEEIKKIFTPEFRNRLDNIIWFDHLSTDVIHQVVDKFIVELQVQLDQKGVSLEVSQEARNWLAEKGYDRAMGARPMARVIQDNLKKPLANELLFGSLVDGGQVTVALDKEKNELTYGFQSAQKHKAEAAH

The substance ClpS had an MDH activity (reactivation of heat-aggregated malate dehydrogenase), rate and yield of over 2 fold.
